# Patent publication US7943340B2, “Fungal dipeptidyl peptidase IV (DPPIV) enzyme for reagent use” (priority 2003, dated 2011)
# Entries after “also recorded” stand apart in the source; their conditions may differ.
# What was measured:
# [1] = Aminopeptidase activity assay with fluorogenic aminoacyl-AMC substrates; format: biochemical; conditions: for preference for aminoacyl-AMC substrates compared to Leu-AMC: Leu-AMC used as a reference; for hydrolytic activity toward Ala-AMC in comparison (%) to Leu-MCA: substrate Ala-AMC; for hydrolytic activity toward Ala-AMC in comparison (%) to Leu-MCA / hydrolytic activity toward Arg-AMC in comparison (%) to Leu-MCA / hydrolytic activity toward Asn-AMC in comparison (%) to Leu-MCA / hydrolytic activity toward Asp-AMC in comparison (%) to Leu-MCA / hydrolytic activity toward Cys-AMC in comparison (%) to Leu-MCA / hydrolytic activity toward Gln-AMC in comparison (%) to Leu-MCA / hydrolytic activity toward Glu-AMC in comparison (%) to Leu-MCA / hydrolytic activity toward Gly-AMC in comparison (%) to Leu-MCA / hydrolytic activity toward Gly-Pro-AMC in comparison (%) to Leu-MCA / hydrolytic activity toward His-AMC in comparison (%) to Leu-MCA / hydrolytic activity toward Hyp-AMC in comparison (%) to Leu-MCA / hydrolytic activity toward Ile-AMC in comparison (%) to Leu-MCA / hydrolytic activity toward Leu-AMC in comparison (%) to Leu-MCA used as a standard / hydrolytic activity toward Lys-AMC in comparison (%) to Leu-MCA / hydrolytic activity toward Met-AMC in comparison (%) to Leu-MCA / hydrolytic activity toward Phe-AMC in comparison (%) to Leu-MCA / hydrolytic activity toward Pro-AMC in comparison (%) to Leu-MCA / hydrolytic activity toward Pyr-AMC in comparison (%) to Leu-MCA / hydrolytic activity toward Ser-AMC in comparison (%) to Leu-MCA / hydrolytic activity toward Thr-AMC in comparison (%) to Leu-MCA / hydrolytic activity toward Val-AMC in comparison (%) to Leu-MCA: 5 mM, 37° C., 60 min; for hydrolytic activity toward Arg-AMC in comparison (%) to Leu-MCA: substrate Arg-AMC; for hydrolytic activity toward Asn-AMC in comparison (%) to Leu-MCA: substrate Asn-AMC; for hydrolytic activity toward Asp-AMC in comparison (%) to Leu-MCA: substrate Asp-AMC; for hydrolytic activity toward Cys-AMC in comparison (%) to Leu-MCA: substrate Cys-AMC; for hydrolytic activity toward Gln-AMC in comparison (%) to Leu-MCA: substrate Gln-AMC; for hydrolytic activity toward Glu-AMC in comparison (%) to Leu-MCA: substrate Glu-AMC; for hydrolytic activity toward Gly-AMC in comparison (%) to Leu-MCA: substrate Gly-AMC; for hydrolytic activity toward Gly-Pro-AMC in comparison (%) to Leu-MCA: substrate Gly-Pro-AMC; for hydrolytic activity toward His-AMC in comparison (%) to Leu-MCA: substrate His-AMC; for hydrolytic activity toward Hyp-AMC in comparison (%) to Leu-MCA: substrate Hyp-AMC; for hydrolytic activity toward Ile-AMC in comparison (%) to Leu-MCA: substrate Ile-AMC; for hydrolytic activity toward Leu-AMC in comparison (%) to Leu-MCA used as a standard: substrate Leu-AMC (standard); for hydrolytic activity toward Lys-AMC in comparison (%) to Leu-MCA: substrate Lys-AMC; for hydrolytic activity toward Met-AMC in comparison (%) to Leu-MCA: substrate Met-AMC; for hydrolytic activity toward Phe-AMC in comparison (%) to Leu-MCA: substrate Phe-AMC; for hydrolytic activity toward Pro-AMC in comparison (%) to Leu-MCA: substrate Pro-AMC; for hydrolytic activity toward Pyr-AMC in comparison (%) to Leu-MCA: substrate Pyr-AMC; for hydrolytic activity toward Ser-AMC in comparison (%) to Leu-MCA: substrate Ser-AMC; for hydrolytic activity toward Thr-AMC in comparison (%) to Leu-MCA: substrate Thr-AMC; for hydrolytic activity toward Val-AMC in comparison (%) to Leu-MCA: substrate Val-AMC
# Experimental: (§1) Aminopeptidase activity was determined using different fluorogenic aminoacyl-4-methylcoumaryl-7-amide derivatives of peptides and the internally quenched fluorogenic substrate Lys(Abz)-Pro-Pro-pNA for specific determination of aminopeptidase P activity. Stockel et al, Adv Exp. Med. Biol. 421:31-35 (1997). All substrates were from Bachem (Bubendorf, Switzerland). Substrate stock solutions were prepared at 0.1 M according to the recommendations of the manufacturer and stored at −20° C. The reaction mixture contained a concentration of 5 mM substrate and enzyme preparation (between 56 and 2,662 ng per assay depending on the cleavage activity of each enzyme for the substrates) in 25 μl of 50 mM Tris-HCl buffer adjusted at the optimal pH for each LAP (between 7 and 8). After incubation at 37° C. for 60 min, the reaction was terminated by adding 5 μl of glacial acetic acid and the reaction mixture was diluted with 3.5 ml of water. The released 7-amino-4-methylcoumarin (AMC) was measured using a spectrofluorophotometer (Perkin Elmer LS-5 fluorometer, Zurich, Switzerland) at an excitation wavelength of 370 nm and an emission wavelength of 460 nm. A standard curve made with synthetic AMC was used to assess the released AMC. The released diprolyl-p-nitroanilide was measured at an excitation wavelength of 310 nm and an emission wavelength of 410 nm. The LA activities were expressed in mnoles of released AMC or pNA/min/μg protein.
# Table 15 details the hydrolytic activity of different LAPs toward various aminoacyl-MCA comparison (%) to Leu-MCA used as a standard.
# [2] = Aminopeptidase P activity assay; format: biochemical; conditions: substrate Lys(Abz)-Pro-Pro-pNA, 5 mM, 37° C., 60 min
# Experimental: as §1
# gliadin 33 mer = assay: Digestion of gliadin 33 mer (RP-HPLC, ESI-MS); format: biochemical, wheat; conditions: 37° C., 1 mM CoCl2, pH7.2
Molecule,hydrolysis of Leu-AMC [1],preference for aminoacyl-AMC substrates compared to Leu-AMC [1],hydrolytic activity toward Ala-AMC in comparison (%) to Leu-MCA [1] [%],hydrolytic activity toward Arg-AMC in comparison (%) to Leu-MCA [1] [%],hydrolytic activity toward Asn-AMC in comparison (%) to Leu-MCA [1] [%],hydrolytic activity toward Asp-AMC in comparison (%) to Leu-MCA [1] [%],hydrolytic activity toward Cys-AMC in comparison (%) to Leu-MCA [1] [%],hydrolytic activity toward Gln-AMC in comparison (%) to Leu-MCA [1] [%],hydrolytic activity toward Glu-AMC in comparison (%) to Leu-MCA [1] [%],hydrolytic activity toward Gly-AMC in comparison (%) to Leu-MCA [1] [%],hydrolytic activity toward Gly-Pro-AMC in comparison (%) to Leu-MCA [1] [%],hydrolytic activity toward His-AMC in comparison (%) to Leu-MCA [1] [%],hydrolytic activity toward Hyp-AMC in comparison (%) to Leu-MCA [1] [%],hydrolytic activity toward Ile-AMC in comparison (%) to Leu-MCA [1] [%],hydrolytic activity toward Leu-AMC in comparison (%) to Leu-MCA used as a standard [1] [%],hydrolytic activity toward Lys-AMC in comparison (%) to Leu-MCA [1] [%],hydrolytic activity toward Met-AMC in comparison (%) to Leu-MCA [1] [%],hydrolytic activity toward Phe-AMC in comparison (%) to Leu-MCA [1] [%],hydrolytic activity toward Pro-AMC in comparison (%) to Leu-MCA [1] [%],hydrolytic activity toward Pyr-AMC in comparison (%) to Leu-MCA [1] [%],further results
"fuLAP1: A. fumigatus leucine aminopeptidase, 388 amino acid residues (SEQ ID NO: 12) (protein, listed as Aspergillus fumigatus) MKVLTAIALSAIAFTGAVAAVITQEAFLNNPRIHHDQEKYLIELAPYRTRWVTEEEKWALKLDGVNFIDITEEHNTGFYPTLHSASYVKYPPKMQYAEEVAALNKNLSKENMKANLERFTSFHTRYYKSQTGIRSATWLFDQVQRVVSESGAAEYGATVERFSHPWGQFSIIARIPGRTNKTVVLGAHQDSINLFLPSILAAPGADDDGSGTVTILEALRGLLQSDAIAKGNASNTVEFHWYSAEEGGMLGSQAIFSNYKRNRREIKAMLQQDMTGYVQGALNAGVEEAIGIMVDYVDQGLTQFLKDVVTAYCSVGYLETKCGYACSDHTSASKYGYPAAMATEAEMENTNKKIHTTDDKIKYLSFDHMLEHAKLSLGFAFELAFAPF",efficiently hydrolyzed,"appreciated Arg-, Val-, and Phe-AMC; also recorded: common preference for Leu-AMC as a substrate",4.7,53.9,29.4,0.8,5.0,44.9,0.0,0.8,5.4,0.8,3.9,13.2,100.0,7.7,116.9,163.7,12.0,0.0,hydrolytic activity toward Ser-AMC in comparison (%) to Leu-MCA [1]: 10.3%; hydrolytic activity toward Thr-AMC in comparison (%) to Leu-MCA [1]: 5.1%; hydrolytic activity toward Val-AMC in comparison (%) to Leu-MCA [1]: 27.6%; hydrolytic activity toward Lys(Abz) Pro-PropNA in comparison (%) to Leu-MCA [2]: 0.0%
"pkLAP: commercially available microsomal LAP from porcine kidney (MEROPS>M1 family) (protein, UniProt P15145 2-963, looked up) Aminopeptidase N: AKGFYISKALGILGILLGVAAVATIIALSVVYAQEKNKNAEHVPQAPTSPTITTTAAITLDQSKPWNRYRLPTTLLPDSYNVTLRPYLTPNADGLYIFKGKSIVRLLCQEPTDVIIIHSKKLNYTTQGHMVVLRGVGDSQVPEIDRTELVELTEYLVVHLKGSLQPGHMYEMESEFQGELADDLAGFYRSEYMEGNVKKVLATTQMQSTDARKSFPCFDEPAMKATFNITLIHPNNLTALSNMPPKGSSTPLAEDPNWSVTEFETTPVMSTYLLAYIVSEFQSVNETAQNGVLIRIWARPNAIAEGHGMYALNVTGPILNFFANHYNTSYPLPKSDQIALPDFNAGAMENWGLVTYRENALLFDPQSSSISNKERVVTVIAHELAHQWFGNLVTLAWWNDLWLNEGFASYVEYLGADHAEPTWNLKDLIVPGDVYRVMAVDALASSHPLTTPAEEVNTPAQISEMFDSISYSKGASVIRMLSNFLTEDLFKEGLASYLHAFAYQNTTYLDLWEHLQKAVDAQTSIRLPDTVRAIMDRWTLQMGFPVITVDTKTGNISQKHFLLDSESNVTRSSAFDYLWIVPISSIKNGVMQDHYWLRDVSQAQNDLFKTASDDWVLLNVNVTGYFQVNYDEDNWRMIQHQLQTNLSVIPVINRAQVIYDSFNLATAHMVPVTLALDNTLFLNGEKEYMPWQAALSSLSYFSLMFDRSEVYGPMKKYLRKQVEPLFQHFETLTKNWTERPENLMDQYSEINAISTACSNGLPQCENLAKTLFDQWMSDPENNPIHPNLRSTIYCNAIAQGGQDQWDFAWGQLQQAQLVNEADKLRSALACSNEVWLLNRYLGYTLNPDLIRKQDATSTINSIASNVIGQPLAWDFVQSNWKKLFQDYGGGSFSFSNLIQGVTRRFSSEFELQQLEQFKKNNMDVGFGSGTRALEQALEKTKANIKWVKENKEVVLNWFIEHS",efficiently hydrolyzed,extremely high efficiency towards Ala-AMC and Arg-AMC; also recorded: common preference for Leu-AMC as a substrate,584.7,174.8,33.9,0.9,35.5,50.7,4.7,74.8,16.7,17.6,1.7,6.3,100.0,70.1,46.1,184.4,7.9,0.0,hydrolytic activity toward Ser-AMC in comparison (%) to Leu-MCA [1]: 24.6%; hydrolytic activity toward Thr-AMC in comparison (%) to Leu-MCA [1]: 4.4%; hydrolytic activity toward Val-AMC in comparison (%) to Leu-MCA [1]: 4.0%; digestion of the 33 mer (gliadin 33 mer): partial deletion of N-terminal Leu and C-terminal Phe; hydrolytic activity toward Lys(Abz) Pro-PropNA in comparison (%) to Leu-MCA [2]: 0.0%
